Blank lines part the entries; values can stand above or below the molecule they belong to.
Assays:
[1] = target: rodent (mouse) Aβ1-40 (mouse (rodent)) (UniProt P12023); experiment: microplate assay on coated human and rodent Aβ1-40 and 1-42
[2] = target: rodent (mouse) Aβ1-42 (mouse (rodent)) (UniProt P12023); experiment: as above
amyloid β (2-40) (human) = amyloid β (2-40) (human) (UniProt P05067); experiment: sandwich ELISA, IAlO capture, HRP-14Fl detection, Abeta fragment 2-40
human Aβ1-40 (human) = human Aβ1-40 (human) (UniProt P05067); experiment: sandwich ELISA, IAlO capture, HRP-14Fl detection, human and mouse Abeta 1-40
amyloid β (3-40) (human) = amyloid β (3-40) (human) (UniProt P05067); experiment: sandwich ELISA, IAlO capture, HRP-14Fl detection, Abeta fragment 3-40

cross-reactivity (against human Aβ) [1]: 10%
cross-reactivity (against human Aβ) [2]: 10%
Molecule: Aβ N-terminal-end specific monoclonal antibody 82E1 (printed 82El)

cross reactivity (against full-length Abeta 1-40) (amyloid β (2-40) (human)): 0.78%
cross reactivity (against mouse Abeta 1-40) (human Aβ1-40 (human)): 50%
cross reactivity (against full-length Abeta 1-40) (amyloid β (3-40) (human)): 0.08%
B1: 14F1, mouse/human cross-reactive N terminus end-specific anti-Abeta antibody (antibody, V domains shown)
VH: DVHLQASGPDLVRPSQSLSLTCTVTDYSITSDYSWHWIRQFPGNKLEWMGYILFSGSSNFNPSLKSRISITRDTSKNQFFLHLNSVTTEDTATYYCARRAYDGNFSWFAYWGQGTLVTVSA
VL: QAVVTQESALTTSPGETVTLTCRSSAGAVTISNYANWVQEKPDHLFTGLIGGTNNRAPGVPARFSGSLIGDKAALTITGAQTEDEAIYFCALWYGNYWVFGGGTKLTVLG
